B1: THAP1; numbered along this chain (parent)
chain: MVQSCSAYGCKNRYDKDKPVSFHKFPLTRPSLCKEWEAAVRRKNFKPTKYSSICSEHFTPDCFKRECNNKLLKENAVPTIFLCTEPHDKKEDLLEPQEQLPPPPLPPPVSQVDAAIGLLMPPLQTPVNLSVFCDHNYTVEDTMHQRKRIHQLEQQVEKLRKKLKTAQQRCRRQERQLEKLKEVVHFQKEKDDVSERGYVILPNDYFEIVEVPA

The variants in the data set derive from B1. Kind of data set: THAP1 transcriptional activity (GFP+/GFP- enrichment relative to wild-type constructs) (ratio to WT); higher = more THAP1 activity (PSMB5 reporter activation). As to conditions: with PSMB5 promoter-GFP reporter. In short, it runs like this:
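Activity values are replicate-mean bright/dim read fold changes divided by the mean of wild-type synonymous constructs. They come from a human THAP1 site-saturation library (residues 2–213, each changed to all 20 amino acids) delivered by lentivirus at MOI ~0.3, in duplicate, into THAP1-knockout HEK-293T cells with mClover3 at endogenous PSMB5. BFP+ cells were sorted into GFP-dim and GFP-bright bins after five days, and variants were counted by Illumina sequencing of genomic DNA amplicons.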
Turning to MVQSCSAYGCKNRYDKDKPVSFHKFPLTRPSLCKEWEAAVRRKNFKPTKYSSRCSEHFTPDCFKRECNNKLLKENAVPTIFLCTEPHDKKEDLLEPQEQLPPPPLPPPVSQVDAAIGLLMPPLQTPVNLSVFCDHNYTVEDTMHQRKRIHQLEQQVEKLRKKLKTAQQRCRRQERQLEKLKEVVHFQKEKDDVSERGYVILPNDYFEIVEVPA [I53R], the THAP1 transcriptional activity amounted to 0.0647. To MVQSCSAYGCKNRYDKDKPVSFHKFPLTRPSLCKEWEAAVRRKNFKPTKYSSICSEHFTPDCFKRECNNKLLKENAVPTIFLCTEPHDKKEDLLEPQEQLPPPPLPPPVSQVDAAIGLLMPPLQTPVNLSVFCDHQYTVEDTMHQRKRIHQLEQQVEKLRKKLKTAQQRCRRQERQLEKLKEVVHFQKEKDDVSERGYVILPNDYFEIVEVPA [N136Q] belongs 0.102; to MVQSCSAYGCKNRYDKDKPVSFHKFPLTRPSLCKEWEAAVRRKNFKPTKYSSICSEHFTPDCFKRECNNKLLKENAVPTIFLCTEPHDKKEDLLEPQEQLPPPPLPPPVSQVDAWIGLLMPPLQTPVNLSVFCDHNYTVEDTMHQRKRIHQLEQQVEKLRKKLKTAQQRCRRQERQLEKLKEVVHFQKEKDDVSERGYVILPNDYFEIVEVPA [A115W], 0.164. In the case of MVQSCSAYGCKNRYDKDKPVSFHKFPLTRPSLCKEWEAAVRRKNFKPTKYSSICSEHFTPDCFKRECNNKLLKENAVPTIFLCTEPHDKKEDLLEPQEQLPPPPLPPPVSQVDARIGLLMPPLQTPVNLSVFCDHNYTVEDTMHQRKRIHQLEQQVEKLRKKLKTAQQRCRRQERQLEKLKEVVHFQKEKDDVSERGYVILPNDYFEIVEVPA [A115R] it was 0.409. To MVQSCSAYGCKNRYDKDKPVSFHKFPLTRPSLCKEWEAAVRRKNFKPTKYSSICSEHFTPDCFKRECNNKLLKENAVPTIFLCTEPHDKKEDLLEPQEQLPPPPLPPPVSQVDAIIGLLMPPLQTPVNLSVFCDHNYTVEDTMHQRKRIHQLEQQVEKLRKKLKTAQQRCRRQERQLEKLKEVVHFQKEKDDVSERGYVILPNDYFEIVEVPA [A115I] belongs 0.237; to MVQSCSAYGCKNRYDKDKPVSFHKFPLTRPSLCKEWEAAVRRKNFKPTKYSSICSEHFTPDCFKRECNNKLLKENAVPTIFLCTEPHDKKEDLLEPQEQLPPVPLPPPVSQVDAAIGLLMPPLQTPVNLSVFCDHNYTVEDTMHQRKRIHQLEQQVEKLRKKLKTAQQRCRRQERQLEKLKEVVHFQKEKDDVSERGYVILPNDYFEIVEVPA [P103V], 1.04.

For MVQSCSAYGCKNRYDKDKPVSFHKFPLTRPSLCKEWEAAVRRKNFKPTKYSSICSEHFTPDCFKRECNNKLLKENAVPTIFLCTEPHDKKEDLLEPQEQLPPPPLPPPVSQVDAAIGLLMPPLQTPVNLSVFCDHNYTVEDTMHQRKRIHQLEQQCEKLRKKLKTAQQRCRRQERQLEKLKEVVHFQKEKDDVSERGYVILPNDYFEIVEVPA [V156C], the THAP1 transcriptional activity worked out at 0.708. In the case of MVQSCSAYGCKNRYDKDKPVSFHKFPLTIPSLCKEWEAAVRRKNFKPTKYSSICSEHFTPDCFKRECNNKLLKENAVPTIFLCTEPHDKKEDLLEPQEQLPPPPLPPPVSQVDAAIGLLMPPLQTPVNLSVFCDHNYTVEDTMHQRKRIHQLEQQVEKLRKKLKTAQQRCRRQERQLEKLKEVVHFQKEKDDVSERGYVILPNDYFEIVEVPA [R29I] it was 0.134; in that of MVQSCSAYGCKNRYDKDKPVSFHKFPLTRPSLCKEWEAAVRRKNFKPTKYSSICSEHFTPDCFKRECNNKLLKENAVPTIFLCTEPHDKKEDLLEPQEQLPPPPLPPPVSQVDAAIGLLMPPLQTPVNLSVFCDHNYTVEDTMHQRKRIHQLEQQVEKLRKKLKTAQQRCRRQERQLEKLKEVVHFQKEKDDVSERGYVILPNDYWEIVEVPA [F206W], 1.27; in that of MVQSCSAYGCKNRYDKDKPVSFHKFPLTRPSLCKEWEAAVRRKNFKPTKYSSICSEHFTPDCFKRECNNKLLKENAVPTIFLCTEPHDCKEDLLEPQEQLPPPPLPPPVSQVDAAIGLLMPPLQTPVNLSVFCDHNYTVEDTMHQRKRIHQLEQQVEKLRKKLKTAQQRCRRQERQLEKLKEVVHFQKEKDDVSERGYVILPNDYFEIVEVPA [K89C], 1.4. For the variant MVQSCSAYGCKNRYDKDKPVSFHKFPLTRPSLCKEWEAAVRRKNFKPTKYSSICSEHFTPDRFKRECNNKLLKENAVPTIFLCTEPHDKKEDLLEPQEQLPPPPLPPPVSQVDAAIGLLMPPLQTPVNLSVFCDHNYTVEDTMHQRKRIHQLEQQVEKLRKKLKTAQQRCRRQERQLEKLKEVVHFQKEKDDVSERGYVILPNDYFEIVEVPA [C62R], the THAP1 transcriptional activity stood at 0.181.

Take MVQSCSAYGCKNRYDKDKPVSFHKFPLTRPSLCKEWEAAVRRSNFKPTKYSSICSEHFTPDCFKRECNNKLLKENAVPTIFLCTEPHDKKEDLLEPQEQLPPPPLPPPVSQVDAAIGLLMPPLQTPVNLSVFCDHNYTVEDTMHQRKRIHQLEQQVEKLRKKLKTAQQRCRRQERQLEKLKEVVHFQKEKDDVSERGYVILPNDYFEIVEVPA [K43S]: the THAP1 transcriptional activity stood at 0.623.

Take MVQSCSAYGCKNRYDKDKPVSFHKFPLTRPSLCKEWEAAVRRKNFKPTKYSSICSEHFTPDCFKRECNNKDLKENAVPTIFLCTEPHDKKEDLLEPQEQLPPPPLPPPVSQVDAAIGLLMPPLQTPVNLSVFCDHNYTVEDTMHQRKRIHQLEQQVEKLRKKLKTAQQRCRRQERQLEKLKEVVHFQKEKDDVSERGYVILPNDYFEIVEVPA [L71D]: the THAP1 transcriptional activity was found to be 0.74. To MVQSCSAYGCKNRYDKDKPVSFHKFPLTRPSLCKEWEAAVRRKNFKPTKYSSICSEHFTPDCFKRECNNKLLKENAVPTIFLCTEPHDKKEDLLEPQEQLPPPPLPPPVSQVDAAIGLLMPPLQTPVNLSVFCDHNYTVEDTIHQRKRIHQLEQQVEKLRKKLKTAQQRCRRQERQLEKLKEVVHFQKEKDDVSERGYVILPNDYFEIVEVPA [M143I] belongs 0.679.

Values taken from the supplement of paper PMC11811203.
